Test results from the DeepSol protein solubility set.

assay: soluble on expression in E. coli; label from the status in PepcDB or PDB records

Row | Sequence | soluble on expression in E. coli
1 | MSTEYGCQVTNKFGLPSDDDDEYDDPRELIQKVSQIAAKKKEEKSVKPAQPVKPAAAPVAATKTDGAAGRGRGGRGRGRGGAGRPRDGERVSNENGDRPQGENRRGGPRRGGERGAARPAGRGGRGGFTRENREGEEPKQEVSFEDGQDTRAPRRRGGFTLGGGPSGGRGGGRGGRGRQFDRQSGSDRTGVRSFDKKDGHGKGNWGDQKDELAGETENIAPEGAESTEPEVPREKTAEELAYEAELAVLAKQKTLKEFKAAAKADAPKFNTRKAGEGAADTFGKLVPIKKEVIPDREEDEVVVIHKAPRKQVLDISITFRNDRPERERNDRSERPQRGGPRGGGRGGGRGGQRQGGHGGRNNTPFNASDDAFPALGAK | not soluble
2 | MSTFSFIIVNNEQVRIHDIQGKSHMSPYNGKKVNNVEGVVTALDKNGFYIEDNQPDNDPATSEGMYVYKKDANVAVGDLIQVDGVVEEYVGPGYAERFETDLTTTEIKASRVVVIAKDQSLPAPIVLGENGVKIPDQIIDNDAFGLFDPNEDAIDFYESIEGMRVTMPTPKVIAPQKNGNLYVTVKNGGDKIVTQYGTPLLDENQLNPERLSVKVPRDYVAKVGDTFTGDITGVVGYDYGSFRISPITELPAVVDGGFKQVGANIQPRLDKLTVATYNIENFSANKKETTDEKVKALAYSIKYNLKMPDIIGVEEMQDNNGSINDLEHHHHHH | not soluble
3 | MSTGGFQKDQAINILLIGTDKRTGSGNDGYGDKGSAGHADTTLLLHVSKDRSNATALSIPRDLIVDVPDCPTTQEDGSTKVIPGSTGVRFNTSLGQSGRTPSCTMRTVTELTGVTPDNFMVADFNAVKTLSSAVGGVEVCLAKDIDDPDSHLNLPAGKHTVEGEEALAFVRTRHSVGFGGDLSRIELQQQFLSSLMRKLKSNDTLTSPTKMVKLAEAGTDALTVDAKLKSIGKLKDLGLELGKLDTKNLTFATVPVKDNPAEKTPVTVVLKDGPAQQVFDMVKNDVSFTEVKKQEKEKKDKEEAAVAARLEGKKSEPSEVRVRVLNGGASSGSAGRELTYLQNEAGVTKSENAGNAPADIAKTTLEYAPDQADQARALAEILGLTGAAMKPGESVTNSQGLPAMTLTLGKDFKGAGVKLDATSAKAPEDLQKSTADKVECAKLEHHHHHH | soluble
4 | MSTGRTAITQPLRRLMRCSRALRRGTWPCSIGLQGIPIKSTPLQLRSCAQRLTFPGTSTGFLWEVWAMSYLRYVKIIGTVHVSPESVREVRETIIREKPDAIALELDYPRLLALLRRERLTLPQALKLGKMGIFGFILQELEMFFGRSFGESPGEEMIEAYKAAASLGIPVYLIDKPVNETLAGMLSSPPIEKLRFGIEVLASLLPGKLKELDYSYLMKEFREKFPHMYKVLVEERNLYMAINLMRIVDSLLEKKKKVKVVAVVGLGHKKGIERILNAHKPRAVKINSL | not soluble
5 | MSTHGSLSEVERFNLLYKSSFNKVCNFACFYVRNKQASEDITMDAFLQLLETMKVESVDNPMALLITIVKHKSLDYLKTQVRREDTKDDLIQWKQRELAIRISNLEGCNPSYIFSQEIKSIVMKTLNQLPEQTKKVFIMNRFENKSGKEIAQTLGISVKGVDYHMNKALKELRAALKDYLPILTWLCFMNPINKG | not soluble
6 | MSTLKVVSSKLAAEIDKELMGPQIGFTLQQLMELAGFSVAQAVCRQFPLRGKTETEKGKHVFVIAGPGNNGGDGLVCARHLKLFGYNPVVFYPKRSERTEFYKQLVHQLNFFKVPVLSQDEGNWLEYLKPEKTLCIVDAIFGFSFKPPMREPFKGIVEELCKVQNIIPIVSVDVPTGWDVDKGPISQPSINPAVLVSLTVPKPCSSHIRENQTTHYVGGRFIPRDFANKFGFEPFGYESTDQILKL | soluble
7 | MSTNEITKRLPNLTSRRALLLYSLPVLVAIGVSHSLKESSLTKTIALNLPESQVVERILDATTAEVVTPPNFEYQIQAGDNLSTIFSQLGFGYSSLMKVMETDLNYLALDTLKPGNTLRFWRNDATGELEKMELQFSIADKVVYQLNSDGGYDFTDISIPGVWRQEPLVGVIQGSFSSSANRLGLSSAEISQVVSLLKEQVNFGRDLRAGDRFEVVRRSQTINGVSTGKNEIEAIKIYNRGREITAYLHTDGQFYNAKGESLQRAFQRYPVSRSWRISSGFNPNRLHPVTGRVAP | not soluble
8 | MSTNYEAIIIGAGQAGLAAAHELSRRGFTPGKDFLVLDSNDGPGGAWRHRWDSLTLGKAHGIADLPGLPMNRPDPKTPASTLVAGYYGAYENEFSFAVVRPVKVSRVEPTSEDPSSPLRVSSDDGREWITRMVLNATGTWTNPYVPYIPGIDKFQGKQLHTVNYRKAEDFKGKKVLVVGGGLSAVQFLLELEGLAETTWATRRPPNFTQREFDAGWGIAVERAVRERTFNGKAPASVVRTTGIPQIPDYLAGVDRGLIVSRGMFEEITPTGVVFGEPPAERSEGLGPSAGTTLAVPESWKPYPAGTHLDVDVIFWNTGFRAALRHLAPMKLRGQGRGIELIDEVSPASDARVLLVGYGSTASTVGATRAGRVAGRVAAKRLLVDVSPHVNLEHHHHHH | not soluble
9 | MSTPSHLNAQPLVWGHGPRTFEVFLEPTCPYSVRAFNKLDDLLDEVGADNVTIKIRLQSQPWHLFSGVIVRCILAASTLPHGREQAHKVMQAVADHREEFEFTDHCSGPNMNATPQQIIERIERYSHVLLGAAFARPELQDVIKWHSKYARQNGIHVSPTFMVNGLVQPDLGSGDDVSVWAARIMA | not soluble
10 | MSTPYVSVIGKITGIHKKEYESDGTTKSVYQGYIEDDTARIRISSFGKQLQDSDVVRIDNARVAQFNGYLSLSVGDSSRIESVNVNIPLEHHHHHH | not soluble
11 | MSTQYETQGYTINNAGRRLVVDPITRIEGHMRCEVNINDQNVITNAVSCGTMFRGLEIILQGRDPRDAWAFVERICGVCTGVHALASVYAIEDAIGIKVPDNANIIRNIMLATLWCHDHLVHFYQLAGMDWIDVLDALKADPRKTSELAQSLSSWPKSSPGYFFDVQNRLKKFVEGGQLGIFRNGYWGHPQYKLPPEANLMGFAHYLEALDFQREIVKIHAVFGGKNPHPNWIVGGMPCAINIDESGAVGAVNMERLNLVQSIITRTADFINNVMIPDALAIGQFNKPWSEIGTGLSDKCVLSYGAFPDIANDFGEKSLLMPGGAVINGDFNNVLPVDLVDPQQVQEFVDHAWYRYPNDQVGRHPFDGITDPWYNPGDVKGSDTNIQQLNEQERYSWIKAPRWRGNAMEVGPLARTLIAYHKGDAATVESVDRMMSALNLPLSGIQSTLGRILCRAHEAQWAAGKLQYFFNKLMTNLKNGNLATASTEKWEPTTWPTECRGVGFTEAPRGALGHWAAIRDGKIDLYQCVVPTTWNASPRDPKGQIGAYEAALMNTKMAIPEQPLEILRTLHSFDPCLACSTHVLGDDGSELISVQVR | not soluble
12 | MSTSAGSSGAAASEPTTAKSLTYSETMNDLRKGSLFGRQKESLATTDGGPQPSSLDDKSQQFKNPIESDKPGPSTEPGRSAKIEQEAPAPTLKKSETPPAFGLSGVVKKVPSVYFPIFNKLGVKIPGFLPSLRETKINAPHIVYDVRRLRLLQKRQRPIKQLWLRLQFQLRFQMQLLKAQTKSSRVPDNASAVMWLHYIEVIEDHCTADC | not soluble
13 | MSTSVKHREFVGEPMGDKEVTCIAGIGPTYGTKLTDAGFDKAYVLFGQYLLLKKDEDLFIEWLKETAGVTANHAKTAFNCLNEWADQFM | not soluble
14 | MSTSWRIRIMLTIHAKLVEAMLAQAHKDHPFEICGVIAGPEKSNLPLRLIPMRNAAQSETFFKFDPQEQLQVWREMEARGEEPIVIYHSHTHTPAYPSRTDVQYASQPQSHYVIVPTDPAYGEEIRSFRILDGMVTEERIRMINSYKAEWELSMEAMVALEHHHHHH | soluble
15 | MSVIIRLKNLPMTAGASDVRTFFTGLKIPDGAVHIIGGDEGEVFVGFSSDDDARLAMTKDRLMIHGAEVRLFLSSKSEQNSVIAARKNNTYTSPVYKEYVPPVPSQPTPAQEQNWNSQTAGNPYAAKAGYEASYPPQNSNATRTSFNNQNSYSNRQEISQNHQENSVKLKDPFGGDYGGYKFQQQPPPQINRYGSGPPPSKPADLSNTRSLPPVNNPPPPHPIPQFPPEKQFGNKLGNNNDVSSRENHIQGSGNERVQGGDSWRDTSFNQPPRNDFKGNYNNAYSSNKYKNNYKAPEFNNDFNGGNKFNQFPPRNAQSTDLSENRAAPPQTGRKTLMPTPQAPFQNAPAPFTNGPSDDVNRPFQTGPPGNLGRNGPPPFQAGVPPPVIQNNMGRPIAPPAAMVRPPPQNFPGGAGGALPVFQAPVMTPIVPPVNKPMGAAAVEKFYIELTRLPTDLLRPAALEAFIHPTAPLTLSSVKTVFGPGGIHMHTIIRLDSIADYATMMRRNGEQGIKIQQSDKKSFDTAIDGIPIPSVSMVPSKEQRSHEDDDKKSRRSRWENTSPIRSPRRSPLRRDNRDRSRSRSPPRRRRRSRSPRRREEHTDPTRWCVQVTNVPFRMKDEELLEWFSEKVRPAKLTRTFYSDGNASDRWVAEFSSESLMKRSFGIRTLCTGRTLRLRYIDNAKADEILKIEDVYGEGKRQMNEEARLQHEVAEKANPPSFFNAPAATRGSGPMPPLNGTAPLPSGQQNGMNVPPPNGFNGAPMRGGFVPRGGNNFSQSRGGMMGRGGHGGGGGPQNFYQNGPNNFNNGPPEQQGQFRGNQGNDGGFRGGFRGGYRGRGGGRGGFQGGSRGDDSQPSQSELMELIKSIGPRGTVLSCNGFPKDVTLEDVVEFFNDYEPDRNSIRIRRGDDGVMTGECMLACQNQENARRASMDLDGQKLRNSVISVRII | not soluble
16 | MSVKKKTQVRTGKMVRELMLADEDVNASLIMVYSENGVNAEIKIEGLTPKCNEELFLSGNVDWNKSVIYKIVDFTGNAEVGKVTLTAMNKNNVSLEIERVMWSKENKEAAEQEETQVEAAPKKEVVVEAPKAITPAPKPVTRVETPAMAPKPTPVPTPKPVSVEAAVELVTPAPVKKAVPTPVTKQETAPVAPAKPKQPALTETNSKLQENYVKLVKKTIEVCQDYELGIDIDDSIESLKEELQSQGISVTFDKEIMDVVNRLRSLQDKGIKVEKVLNLL | not soluble
17 | MSVVIERIPKEAIPKSLLLLADPSERQIATYVQRGLTYVAKQGGSVIGVYVLLETRPKTMEIMNIAVAEHLQGKGIGKKLLRHAVETAKGYGMSKLEVGTGNSSVSQLALYQKCGFRIFSIDFDYFSKHYEEEIIENGIVCRDMIRLAMELNKNV | soluble
18 | MSWIERIKSNITPTRKASIPEGVWTKCDSCGQVLYRAELERNLEVCPKCDHHMRMTARNRLHSLLDEGSLVELGSELEPKDVLKFRDSKKYKDRLASAQKETGEKDALVVMKGTLYGMPVVAAAFEFAFMGGSMGSVVGARFVRAVEQALEDNCPLICFSASGGARMQEALMSLMQMAKTSAALAKMQERGLPYISVLTDPTMGGVSASFAMLGDLNIAEPKALIGFAGPRVIEQTVREKLPPGFQRSEFLIEKGAIDMIVRRPEMRLKLASILAKLMNLPAPNPEAPREGVVVPPVPDQEPEA | soluble
19 | MSWKIIEKYRRILAQEEGNSPKRRGGKLTVCLVYPNRYGVAMSNLGFQAVHALLNAESDILCERAFLPDPDDLREYRRSGARLLSLESQEPLSSFDIIAFSVSFESDYLNIPVIFDLAGIPALAAERTGSHPLVMGGGAALFLNPEPVADFLDLIVVGEGEAILPTFLDHIRADGIGDRAMFLAGVAGLPGIYVPSLYATEYDGARLVSREAKDGAPEQVKRIWMAEPDGRATVSEILTPGTEFSDMYLVEVSRGCGRGCRFCAAGFIYHPYRQRSLDAVKAAVAEGLSHRRKIGLVGAAVSDFREIGELCRHILAEGGTVSVSSLRIDRLDEGMIEVLKASGHKTVALAPEGGSQRIRDLINKNLTEEQILAACDLLIGHDILNLKLYFIIGLPTETMDDLEEMALLVEKIRKRVIAAARKNKRLGEIILSVNPFVPKPFTPFQWCGMEDTPSLEKKLKYLQQTVGRLSNVRLIAESPKDAWLQALLSRGDRRLSGFLLRAAELGNWKRAAREFPVDTDFLVHRTIPLDEMLPWDVIASADAERLRREYLKATPPRLEHHHHHH | not soluble
